target: acetylcholine receptor; assay: SPR, AchR immobilized on chip

| Binding affinity (relative to RRQRR) (relative value to the RRQRR sequence) | Binding affinity (relative to RRGVRR) (value relative to the RRGVRR sequence) | Binding affinity (RU) | Binder |
| --- | --- | --- | --- |
| 163 | – | – | DRRQRR |
| – | 185 | – | RRRGVRR |
| 147 | – | – | ERRQRR |
| – | 105 | – | RRGVRRN |
| – | 33 | – | RRGVRRE |
| – | 128 | – | CRRGVRR |
| – | 169 | – | KRRGVRR |
| – | 145 | – | YRRGVRR |
| 158 | – | – | RRQRRH |
| – | 118 | – | RRGVRRA |
| – | 139 | – | FRRGVRR |
| – | 137 | – | GRRGVRR |
| – | 117 | – | SRRGVRR |
| – | 149 | – | LRRGVRR |
| – | 101 | – | QRRGVRR |
| 37 | – | – | RRQRRE |
| – | – | 23 | KSLLR [5mer-ND] |
| – | 61 | – | RRGVRRD |
| – | 105 | – | TRRGVRR |
| – | 138 | – | RRGVRRI |
| – | 109 | – | NRRGVRR |
| – | 134 | – | RRGVRRW |
| – | 124 | – | MRRGVRR |
| – | 142 | – | RRGVRRP |

| Binding affinity (relative to RRQRR) (relative value to the RRQRR sequence) | Binding affinity (relative to RRGVRR) (value relative to the RRGVRR sequence) | Binding affinity (RU) | Binder |
| --- | --- | --- | --- |
| – | 131 | – | RRGVRRC |
| – | 140 | – | VRRGVRR |
| – | 154 | – | RRGVRRH |
| – | 43 | – | ERRGVRR |
| – | 134 | – | WRRGVRR |
| – | 188 | – | RRGVRRR |
| – | 149 | – | RRGVRRV |
| – | 146 | – | RRGVRRL |
| – | 137 | – | RRGVRRF |
| – | 101 | – | RRGVRRY |
| – | 134 | – | ARRGVRR |
| – | 159 | – | DRRGVRR |
| – | – | 35 | RKSLLR [Spep 6mer] |
| – | 113 | – | RRGVRRT |
| – | 105 | – | RRGVRRQ |
| 65 | – | – | RRQRRD |
| – | 126 | – | IRRGVRR |
| – | 171 | – | RRGVRRK |
| – | 160 | – | HRRGVRR |
| – | 127 | – | RRGVRRM |
| – | 138 | – | PRRGVRR |
| – | 105 | – | RRGVRRG |
| – | 118 | – | RRGVRRS |

Source: patent publication US20250011363A1, “OPTIMIZED SHORTENED PEPTIDE THAT BINDS TO ACETYLCHOLINE RECEPTOR, AND USE THEREOF” (SKINMED CO., LTD., priority 2021, published 2025)
